Results reported in US7001882B1, “Muteins of bilin-binding protein” (Pieris Proteolab AG, priority 1999, dated 2006).

What was measured:
Type in all cases: binding
[1] = Fluorescence titration of Bbp muteins with digoxigenin
Procedure: (§1) The ligand binding properties of muteins DigA, DigA16 and also of the recombinant bilin-binding protein (encoded by SEQ ID NO:16) were determined by means of the method of fluorescence titration. In this case, the decrease in intrinsic tyrosine and/or tryptophan fluorescence of the protein forming a complex with the ligand was measured. The measurements were carried out in a fluorimeter, type LS 50 B (Perkin Elmer) at an excitation wavelength of 295 nm (slit width 4 nm) and an emission wavelength of 345 nm (slit width 6 nm). The ligands used were digoxigenin (Fluka), digoxin (Fluka), digitoxigenin (Fluka), digitoxin (Fluka), testosterone (Sigma), ouabain (Fluka), and 4-aminofluorescein (Fluka).
(§2) The buffer system used was PBS with the addition of 1 mM EDTA. […] The concentration was determined by means of absorption at 280 nm using calculated extinction coefficients of 53580 M^−1 cm^−1 for DigA and DigA16 (Wisconsin Software Package, Genetics Computer Group). For Bbp, the calculated extinction coefficient of 54150 M^−1 cm^−1, corrected in the presence of guanidinium chloride according to Gill and von Hippel (Anal. Biochem. 182 (1989), 319–326) was used. […]
(§3) Here, F means the normalized fluorescence intensity and [L]t the total ligand concentration in the particular titration step. […]

[2] = Fluorescence titration of Bbp muteins with digitoxin; settings: 1 μM mutein, PBS with 1 mM EDTA, 25° C., read-out: Kd, ligand digitoxin
Procedure: as §1, §2, §3

[3] = Sandwich ELISA detecting digoxigenin groups with DigA16-alkaline phosphatase fusion proteins; settings: p-nitrophenyl phosphate hydrolysis, 405 nm, FIG. 3
From the text: Here, the digoxigenin groups were coupled on the one hand to bovine serum albumin (BSA, squares) or, on the other hand, to chicken egg albumin (ovalbumin, triangles) The control data shown are those obtained when using underivatized bovine serum albumin and the fusion protein encoded by pBBP27 (open circles). The enzymatic activity corresponding to the particular bound fusion protein was monitored spectrophotometrically at 405 nm on the basis of p-nitrophenyl phosphate hydrolysis. Curve fitting was carried out by non-linear regression with the aid of the Kaleidagraph computer program (Abelbeck Software) by means of the equation [P·L]=[L]t[P]t/(Kd+[P]t)
Here, [P]t corresponds to the total fusion protein concentration used in the particular microtiter plate well. [P·L] is determined on the basis of the enzymatic activity of alkaline phosphatase. […]
For detecting digoxigenin groups in a sandwich ELISA, the wells in in each case two rows of a microtiter plate (ELISA strips, 2×8 well with high binding capacity, F-type, Greiner) were filled in each case with 100 μl of a 100 μg/ml solution of the BSA-digoxigenin conjugate or the ovalbumin-digoxigenin conjugate in PBS and incubated at RT overnight. […] The fusion proteins bound to the digoxigenin groups were finally detected by means of alkaline phosphatase-catalyzed hydrolysis of p-nitrophenyl phosphate. […]

[4] = Fluorescence titration of Bbp muteins with digitoxigenin
Procedure: as §1, §2, §3

[5] = Fluorescence titration of Bbp muteins with ouabain
Procedure: as §1, §2, §3

[6] = Fluorescence titration of Bbp muteins with testosterone; settings: 1 μM mutein, PBS with 1 mM EDTA, 25° C., read-out: Kd, ligand testosterone
Procedure: as §1, §2, §3

[7] = Fluorescence titration of Bbp muteins with digoxin; settings: 1 μM mutein, PBS with 1 mM EDTA, 25° C., read-out: Kd, ligand digoxin
Procedure: as §1, §2, §3

[8] = Fluorescence titration of Bbp muteins with 4-aminofluorescein; settings: 1 μM mutein, PBS with 1 mM EDTA, 25° C., read-out: Kd, ligand 4-aminofluroescein
Procedure: as §1, §2, §3

Molecule	Kd ([1]; fluorescence titration, 1 μM mutein, PBS with 1 mM EDTA, 25° C., read-out: Kd, ligand digoxigenin) [nM]	Kd [2] [nM]	binding of the digoxigenin group as conjugate with BSA and with ovalbumin in ELISA (in words) [3]	Kd ([4]; 1 μM mutein, PBS with 1 mM EDTA, 25° C., read-out: Kd, ligand digitoxigenin) [nM]	binding of digitoxigenin compared with digoxigenin (FIG. 1, in words) ([4]; FIG. 1)	Kd ([5]; 1 μM mutein, PBS with 1 mM EDTA, 25° C., read-out: Kd, ligand ouabain) [nM]	binding of ouabain (FIG. 1, in words) ([5]; FIG. 1)	Kd [6] [nM]	Kd [7] [nM]	Kd [8] [nM]	Kd ([1]; determined according to Example 3, read-out: affinity between the mutein and digoxigenin) [nM]
DigA16: affinity-improved mutein of the bilin-binding protein derived from DigA, encoded by SEQ ID NO:15 (polypeptide SEQ ID NO: 23) (protein) DVYHDGACPEVKPVDNFDWSQYHGKWWQVAAYPDHITKYGKCGWAEYTPEGKSVKVSRYSVIHGKEYFSEGTAYPVGDSKIGKIYHSYTIGGVTQEGVFNVLSTDNKNYIIGYFCSYDEDKKGHMDLVWVLSRSMVLTGEAKTAVENYLIGSPVVDSQKLVYSDFSEAACKVNN	30.2 ± 3.6	2.7 ± 2	context-independent	2.8 ± 2.7	bound even tighter than digoxigenin	> 10000	no binding is observed	> 10000	31.1 ± 3.2	> 10000	–
DigA: mutein of the bilin-binding protein selected for digoxigenin binding, SEQ ID NO:12 (amino acid sequence SEQ ID NO: 21) (protein) DVYHDGACPEVKPVDNFDWSQYHGKWWEVAKYPHHERKYGKCGWAEYTPEGKSVKVSRYSVIHGKEYFSEGTAYPVGDSKIGKIYHSYTIGGVTQEGVFNVLSTDNKNYIIGYFCSYDEDKKGHMDLVWVLSRSMVLTGEAKTAVENYLIGSPVVDSQKLVYSDFSEAACKVNN	–	–	–	–	–	–	–	–	200 ± 34	–	295 ± 36
